This data set is described as follows: soluble on expression in E. coli; label from the status in PepcDB or PDB records.
For the sequence “MAHHHHHHMDGQSSSPAEPASGSVALLYDYTTANDAPVEVHRAAAGRLACSYRAECLAIENGFGHLMPPCLGTSQSPTRILVATDSLSAIEAFRCPLAMRDRVTEAILIMPLSLVKRGRPVEFIFSPSHCGIPRNEATDEEATISISLPQEGIPIWHVDFLTAVKRLCWKEFQEEAEGAYTARQAFVGVARTPFLISSQK”, the “soluble on expression in E. coli” value is “not soluble”.

On to “MHHHHHHSSQEVGEHREITAEETAELLKNSHSVIITPGYGMAVAQAQYPVAEITEKLRARGINVRFGIHPVAGRLPGHMNVLLAEAKVPYDIVLEMDEINDDFADTDTVLVIGANDTVNPAAQDDPKSPIAGMPVLEVWKAQNVIVFKRSMNTGYAGVQNPLFFKENTHMLFGDAKASVDAILKAL”, for which the “soluble on expression in E. coli” value was “soluble”.

Turning to “SLTTQRLGLIMNGVTGRMGLNQHLIRSIVAIRDQGGVRLKNGDRIMPDPILVGRSAEKVEALAKRFNIARWTTDLDAALADKNDTMFFDAATTQARPGLLTQAINAGKHVYCEKPIATNFEEALEVVKLANSKGVKHGTVQDKLFLPGLKKIAFLRDSGFFGRILSVRGEFGYWVFEGGWQEAQRPSWNYRDEDGGGIILDMVCHWRYVLDNLFGNVQSVVCIGNTDIPERFDEQGKKYKATADDSAYATFQLEGGVIAHINMSWVTRVYRDDLVTFQVDGTHGSAVAGLSDCMIQARQATPRPVWNPDEKRLHDFYGDWQKLPDNVSYDNGFKEQWEMFIRHVYEDAPYKFTLLEGAKGVQLAECALKSWKERRWIDVAPIK”, the “soluble on expression in E. coli” value was “soluble”.

On to “ASVRVVQKNLVFVVGLSQRLADPEVLKRPEYFGKFGKIHKVVINNSTSYAGSQGPSASAYVTYIRSEDALRAIQCVNNVVVDGRTLKASLGTTKYCSY”, for which the “soluble on expression in E. coli” value was “soluble”.

With “EPMQVVKQRRDAALNALVSGVPFIRFLNITFDRRGDELTGVLNFDDKLIGNPFLPAIHGGVTAAFLEVTAVITLSWAHLFERIESGDLAPEDILTDENMRFPKTIDFTIDYLRSGLPRDAYARAYISRAGRRYASVRVEAWQDHHDKLYAQGTGHFLMP”, the “soluble on expression in E. coli” value is recorded as “not soluble”.

Take “MGSDKIHHHHHHMSCSTAVKENTTQPDIMETNKKNLGNLLALYPKPMTVVGAEVEGKVNWLVVGHTGVIGHDRILVSMSKSHYTNQGIKKSKRLSVNLVSREMLPKADYVGSVSGATVDKSEVFAYHIGENDTPVIDASPLTMECEVVDIYETDGFDNFICAIVNTYAASDVLDSDGKLDYTKLKPVLFEFPTYSYLATGEIIGKCLNPDKPGMCVKEPMTTDGIVRLSKIEVYPQYLDEYMNYATEVGEISLRTEPGVLTMYAVGEKENPCKVTILETYASREAYEQHIASEHFQKYKQGTLHMVKSLVLSDQTPLNPANKLNNFMQ”: the “soluble on expression in E. coli” value is on record as “not soluble”.

“MQVEQRTLNTAAHPFQITAYWLDQISDFETAVDYPIMIICPGGGFTYHSGREEAPIATRMMAAGMHTVVLNYQLIVGDQSVYPWALQQLGATIDWITTQASAHHVDCQRIILAGFSAGGHVVATYNGVATQPELRTRYHLDHYQGQHAAIILGYPVIDLTAGFPTTSAARNQITTDARLWAAQRLVTPASKPAFVWQTATDESVPPINSLKYVQAMLQHQVATAYHLFGSGIHGLALANHVTQKPGKDKYLNDQAAIWPQLALRWLQEQGLLAGNYLEHHHHHH”: the “soluble on expression in E. coli” value is listed as “soluble”.

On to “MQDYTVHIVDDEEPVRKSLAFMLTMNGFAVKMHQSAEAFLAFAPDVRNGVLVTDLRMPDMSGVELLRNLGDLKINIPSIVITGHGDVPMAVEAMKAGAVDFIEKPFEDTVIIEAIERASEHLVALE”, for which the “soluble on expression in E. coli” value was “soluble”.

Regarding “MGSDKIHHHHHHMNILVDLTQIPIQKVGVGVYAKETFKFPNEDANELFFLLQDDDNDLRSTFLKSKIILVKSKFFRFFFCRFLLEQFYIPFLCYKYKINILHSLHYSFPIFLFKVKRIVTIHDLTFFIHPSVHTFIKRYYFRLFIKLACRYADRLICVSESTKKDLERICGRRSVSIDVIPLSCSPKMQVGEQELELVKKKFGVVSQYMLFIGTLEPRKNILNLINAFYKFSQKNRDYSLVIIGKKGWFYESIFKLVEELHLERSVVFTGFVTTKEKFILLSGAHSFIYPSIYEGFGLPVLEAITYGIPTITSKLSSLPEVAGNAALYINPYDVQSISDAIESVNCDEETRRKLIKNSEKQRLKYSWKKTANLTYSLYNRCGSI”, the “soluble on expression in E. coli” value is “not soluble”.

In the case of “KVISPTYQASTQVLVHESDGEENSNLSDIQRNLQYSSTFQSIMKSTALMEEVKAELHLSESASSLKGKVVTSSENESEIINVAVQDHDPAKAAEIANTLVNKFEKEVDERMNVQGVHILSEAKASESPMIKPARLRNM”, the “soluble on expression in E. coli” value was “not soluble”.

On to “MGSDKIHHHHHHMPHLFYGTAQNGEVIFDEREAHHMRVVRLKEGDVIEATDGNGFSYTCILKSLKKKTAAAKIVKVEEKEKEPTEKLSVVVPIGRWERTRFLIEKCVELGVDEIFFHKFERSQHEISLDKAKIVVREAAKQCKRYLFPKVSFLEKLEFSGNVITLDLDASQNLLDANLEGSITVVVGPEGGFSEKERELLRSSTTIVSLGKKILRFETAAILTVGYIALKKQKI”, for which the “soluble on expression in E. coli” value was “soluble”.

Take “MTNVLILGAAGQIARLAEQQFLANTTDNLTLYLRNSSRVADQQSDRVTIIDGDTTDEAKLTQAMTGQDVVYANLAGQNIKQQAETVLKAMHTSGLKRLIWISTLGIYDEVPGKFGQWNNATLGSYLTRYYAAAEVLENSDLDYTIIRPAWLTNKDEIDYEITQRHDPFKGTEVSRKSIAALVVKLTQDPTSNIRTSLGVNKPNTDGDKPAWY”: the “soluble on expression in E. coli” value is listed as “not soluble”.

In the case of “MGSDKIHHHHHHMIIKNAKIYGDSLQDIEIKEGKITNIDSNLQGEEILDAKGMTLLPSFVDLCVSLKNDKFSLANLELLENECLKGGISSIVLRDCMDFDEESFALFLQNLAQRKMQIFSSVRVKDANGKLKNLATLLNKGACALELDSSLDANTLKVSSQYAFMKDSPIFVRCYDKDFDDNGVMNDCEMSFELGLIGMSKIAETSQIAKMKELAKFYKNKVIFDLLSLKDSLVLLDEKDLKLVSIHHLIKDDSACEDFNTAAKLMPPLRSKEDVLALREVLKEGKISFLTSLHSAKSISLKDLAFDEAAFGIHSVCEFISLCYTFLIKEGFLNWQELCRFTSKNPSEFLGLNSGVIEVGKEANLVLFDENEEIFAPKSSLYSEDKLFGKIKMHIIKGKNILEK”, the “soluble on expression in E. coli” value is “not soluble”.

Turning to “MKNFVRTTLLAATLAGVSFGAFATAVPNPPLPAQDPIVQHLKLTNDQITRIKKLHQQLETDVSQISMKGIKDGALIEVIKSGKWDDAAVKQQLAAFSNIEQQARYYRVKYYFDLSKVLTPEQRQQVQQDLAQALELEHHHHHH”, the “soluble on expression in E. coli” value is “soluble”.

As to “MKKRYSWEELARAMGIEPQRLENKEARELKKFVDEMTWPTHCNYCQGLDLTNPNPVHHPSYELTPACNHDCIFCYSNVAVKLGKAPKPGYYGWDNPKVITISQYGEPLLSPRIVEVNKMLRKRFPEARLDLQTNGSLLTRELWEKLDFDLVMISLNAADREKHRRIANADTFEQVVNALKIVGEDKSVRSVVRTVFMPGINDEDIPKIAELAASLGIDEMHLQPLTIHELNVERLKKAGLDFERAESIRELLKAAMEAKKYIDVRISGCILVQLKQMDPITLYSVRRVAREVVPLVKRSKLDILEHHHHHH”, the “soluble on expression in E. coli” value is given as “not soluble”.

As for “MKKLTFEQLRSVQMSILDRVHLFCERHDLEYSLAGGTLLGAIRHKGYIPWDDDIDIMMPREDYEYLLQNFAKEYPDFTFFNLDTKHNPYPFLFSKLSLNDSVISNGRIKGVGINIDIFPIDSLGKEKGAAKLRFSLMKAINFFARIQRSRHDRANPIVNIAFRLFQKCLKLLPKKWFLSAIKGLCSTCSVNDDGYAVSIGSSYLAKEFTESSLYHDYTSCPFEDRQYKCIARYDDYLSMIYGDYMQLPKEQDRENHDNVGFIKEHLLPMLEHHHHHH”, the “soluble on expression in E. coli” value was “not soluble”.

For “MLHTLHRSPWLTDFAALLRLLSEGDELLLLQDGVTAAVDGNRYLESLRNAPIKVYALNEDLIARGLTGQISNDIILIDYTDFVRLTVKHPSQMAW”, the “soluble on expression in E. coli” value is “soluble”.

As for “MHNSTGRYVLGMEVMTPTGMNLDIATSVANADLARFDQVVGEDGIERFTFAKIEYTKESDLFEKTCELTANLLDSLLTQLPRS”, the “soluble on expression in E. coli” value is listed as “not soluble”.

For “SSRVTYPLRKMREGAQDLAKGKFDTKIPILTQDEIGELATAFNQMGRQLNFHINALNQEKEQLSNILSSMADGVITINIDGTILVTNPPAERFLQAWYYEQNMNIKEGDNLPPEAKELFQNAVSTEKEQMIEMTLQGRSWVLLMSPLYAESHVRGAVAVLRDMTEERRLDKLREDFIANVSHELRTPISMLQGYSEAIVDDIASSEEDRKEIAQIIYDESLRMGRLVNDLLDLARMESGHTGLHYEKINVNEFLEKIIRKFSGVAKEKNIALDHDISLTEEEFMFDEDKMEQVFTNLIDNALRHTSAGGSVSISVHSVKDGLKIDIKDSGSGIPEEDLPFIFERFYKADKARTRGRAGTGLGLAIVKNIVEAHNGSITVHSRIDKGTTFSFYIPTKR”, the “soluble on expression in E. coli” value is given as “not soluble”.

On to “MSLKVHGVILMNIEEWEEYRYVEAGIKESITLIEDPGLKKMVEHVCHSGGKRIRPIILLLVSEICSGSYSRSLNAALAVEMMHSASLIHDDLLDQGLVRRNLPSAPEKFGPSGALLCGDYLIAKSIAFISPYGEKVIQDFGKAGMDMAEGEVLDLKLEDESFGENDYFKCIYKKTASLFAISASIGAYTGGAEEELAERFSHFGNALGTAYQIVDDILEFLEVVEGKESKFTSETLPHIYMKSTSKEEALKKSIDCVKLHVAAAKETLETFRECPARDKLFQITDYITVDMLENLEGHHHHHH”, for which the “soluble on expression in E. coli” value is given as “soluble”.

On to “MAHHHHHHMLRCSCARRRGVYHNAPSVYPFVKPFHDTPYDQDRGRHDSVGQRYRKNSWPEWMDNGADGTGYGIGLHRTHPLSRLRGNLKRSPSHVPRVLGMMIQGVWHKSGVKLYFRGGKPPNPSVHPYLTGEPCPLYGWKVTDESVIRQFNMPSIDGTNFRYKPYVALQERKIMGVQVPSDSVSLASGRTTESKPLAKRLFFWR”, for which the “soluble on expression in E. coli” value was “not soluble”.

Take “MAHHHHHHMWDPFRDIDRIFNRVLPLTGAGSFSSFSRGSWSPAMDLVEKPEGYKLLVDLPGMNREDIQVGIEDNRLCISGNRKSLLKDDEQHLAVFLERGYGRFERCMNLPSPIVEESVKARLRDSVLVVELKKNNSPASSAATSVTIQ”: the “soluble on expression in E. coli” value was “soluble”.

For “MKERIVGQSGELFCFGQMPVWKVENLPEVLLSGYSSEEGEWVCLNVLQGDVEVRAPDGAAEVWSAESGDCVFAPQQVFSVKPKTDDAEIRLSLYCAAADYFHKKYGMSATHSAVAAAQDTVPAGRALDMGCGQGRNALFLGLKGFDVTAADCNPAALANVAELAEAEGLNVRTLEYDLNAAALQGEFDYIVATVVLMFLMPQRVPDVIADMQAHTAAGGYNLIVSAMDTADFPCPMPFPFKFKEGELKDYYRDWELVEYKEELGAMHAKDENGNPIRFKFVTMLAKKPGLEHHHHHH”, the “soluble on expression in E. coli” value is “soluble”.

For the sequence “MLVWEELREKALNKIYHDKEIGYLDPDILGFLLAFYRNRNDVYTQSSCSGRITIVDAEMPWDRKNSTIIFKNHLRITEQDLEDVLSKNQVRRLWLIVQGPIIHIYAKNIETGWDILKIAREAGFKHSGILATNQKGVLVELRTGIRMVHLLRESNTERVDKDKIKTLVNVCNEVLARGKQKMNLLKDLLSSSSNNSMELGKNSKLKTPI”, the “soluble on expression in E. coli” value is “soluble”.

“MLYLTQRLEIPAAATASVTLPIDVRVKSRVKVTLNDGRDAGLLLPRGLLLRGGDVLSNEEGTDFVQVIAADEEVSVVRCDDPFMLAKACYALGNRHVPLQIMPGELRYHHDHVLDDMLRQFGLTVTFGQLPFEPEAGAYASES”: the “soluble on expression in E. coli” value was “soluble”.

Values taken from the DeepSol protein solubility set.
